Data: doi:10.1101/2021.02.25.432905 (bioRxiv, 2021)

Molecular target: A/California/7/2009 HA (recombinant HA, rHA) (Influenza A virus A/California/07/2009 …, UniProt C3W5X2)

B1: 350-145 (antibody, V domains shown)
VH: EVQLVESGGGLVQPGGSLRLSCSASGFTFSSYSMNWVRQAPGKGLEWLSYISSSSGSKYYADSVKGRFTISRDNAKNLVYLQMSSLRADDAAMYYCARSDYAVFYYGMDVWGQGTTVTVSS
VL: EIVMTQSPATLSVSPGERATLSCRASQSVSSNLAWYQQKPGQAPRLLIYGASTRATGIPARFSGSGSGTEFTLTISSLQSEDFAVYYCQQYYNWPPLTFGGGTKVEIK
- binding result: binds
